Measurements reported in patent US9896488B2.

Biological target: Fc-tagged extracellular domain of RPTPσ (wild type) (mouse) (UniProt B0V2N1)
Experiment: ELISA: RPTPσ-Fc on protein G plates, biotinylated aggrecan (5 ug/ml) preincubated with protamine (0-5 ug/ml). The reference is binding without protamine.

fold increase of binding in the presence of protamine: 2 fold
Substance: Biotinylated aggrecan (from UniProt P13608)
